The binders below were run against T1, Anti-CD28 Fab (SEQ ID NOs: 202, 203) (assay: phage binding ELISA, Fab on plate;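 also: clonal phage supernatant ELISA, wells preincubated with CD28 antigen or blocking buffer only, then bound phage detected using HRP-linked anti-M13 antibody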).
T1 construct: biotinylated and captured on neutravidin coated plates in the phage ELISA
T1 sequence (VH, as listed by the source, chain 1 of 2): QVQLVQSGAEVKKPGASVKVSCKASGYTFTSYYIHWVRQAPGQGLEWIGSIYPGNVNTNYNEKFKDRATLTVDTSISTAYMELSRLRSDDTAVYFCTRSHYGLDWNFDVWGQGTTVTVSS
T1 sequence (VL, as listed by the source, chain 2 of 2): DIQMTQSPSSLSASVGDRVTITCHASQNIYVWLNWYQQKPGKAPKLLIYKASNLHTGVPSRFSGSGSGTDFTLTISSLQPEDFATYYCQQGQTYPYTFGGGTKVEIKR
Experimental: After panning, phage infected bacteria were plated out and colonies picked into 96 well blocks. Clonal phage was then amplified and separated from bacterial cells via centrifugation.
Clonal phage were harvested as crude supernatants and screened via standard ELISAs. […] Prior to the addition of clonal phage, wells were incubated with blocking buffer and CD28 antigen or blocking buffer alone. Without washing or aspirating, clonal phage supernatants were then added to the wells and incubated for a short time. Wells were then washed followed by detection of bound phage using a horse radish conjugated anti-M13 antibody. Clonal phage of interest were then sent for sequence analysis.
WCAAGASYPWPWCL [Phage-1077] was tested, and the “Anti-CD28 Fab (SEQ ID NOs: 202, 203) signal” value (from here on “Anti-CD28 Fab”) was 1.58.
DCWGDAPYPWRVCL [Phage-1059] was tested, and the “Anti-CD28 Fab” value was 1.64.
With SCSAVFSYAWPTCL [Phage-1064] the “Anti-CD28 Fab” value was 1.61.
In the case of LCSAGATYPWPWCM [Phage-1058], the “Anti-CD28 Fab” value is reported as 1.64.
SCAAGATYEWPRCL [Phage-1068] was tested, and the “Anti-CD28 Fab” value was 1.6.
In the case of SCAAGATYEWPICL [Phage-1074], the “Anti-CD28 Fab” value is reported as 1.59.
With TCSAGAAYAWPYCL [Phage-1072] the “Anti-CD28 Fab” value was 1.59.
For TCAAGATYPWPECM [Phage-1082], the “Anti-CD28 Fab” value was 1.57.
In the case of TCAAGAGWQWPMCF [Phage-1067], the “Anti-CD28 Fab” value is reported as 1.6.
In the case of WCAAGATWPWPLCI [Phage-1042], the “Anti-CD28 Fab” value is reported as 1.7.
With SCAAGATFHWPMCF [Phage-1079] the “Anti-CD28 Fab” value was 1.57.
For TCSAGANYEWPWCF [Phage-1062], the “Anti-CD28 Fab” value was 1.62.
LCSAGAMYQWPTCL [Phage-1061] was tested, and the “Anti-CD28 Fab” value was 1.63.
With LCSAGAMWQWPTCL [Phage-1097] the “Anti-CD28 Fab” value was 1.51.
In the case of LCAAGFNYPWPLCL [Phage-1083], the “Anti-CD28 Fab” value is reported as 1.57.
LCAAGAAYPWPMCL [Phage-1073] was tested, and the “Anti-CD28 Fab” value was 1.59.
In the case of TCAAGAHYEWPMCY [Phage-1063], the “Anti-CD28 Fab” value is reported as 1.61.
For SCAAGAPYPWPECL [Phage-1071], the “Anti-CD28 Fab” value was 1.59.
In the case of TCTAVFPYEWPRCL [Phage-1078], the “Anti-CD28 Fab” value is reported as 1.57.
With TCAAGAHWIWPWCE [Phage-1066] the “Anti-CD28 Fab” value was 1.61.
In the case of SCAAGAQYGWPMCL [Phage-1076], the “Anti-CD28 Fab” value is reported as 1.59.
TCAAGAMWTWPECL [Phage-1081] was tested, and the “Anti-CD28 Fab” value was 1.57.
WCTAGFSYKLSICL [Phage-1060] was tested, and the “Anti-CD28 Fab” value was 1.63.
TCAAGAHYAWPECF [Phage-1040] was tested, and the “Anti-CD28 Fab” value was 1.72.
In the case of TCAAGAYYAWPMCL [Phage-1070], the “Anti-CD28 Fab” value is reported as 1.59.
For RCRAGFSYNWPYCM [Phage-1041], the “Anti-CD28 Fab” value was 1.72.
For TCSAGFSYKWPWCL [Phage-1080], the “Anti-CD28 Fab” value was 1.57.

Reference: US20260274955A1 (JANUX THERAPEUTICS, published 2026)
